Data on one protein can be found in PMC8041713, “Identification and biochemical characterisation of tyrosine aminotransferase from Anthoceros agrestis unveils the conceivable entry point into rosmarinic acid biosynthesis in hornworts” (Planta, 2021).

In general, Km refers to the concentration of substrate that gives half-maximal velocity. Broadly, the Vmax is the rate approached at saturating substrate. A word on the kcat: it is the number of substrate molecules converted per active site and unit of time at saturation. Broadly, the kcat/Km is the turnover number divided by the Michaelis constant.

Holding throughout (experiment): purified protein
Substrate in series [1]: CC(=O)C(=O)O
It counts as biochemical, Anthoceros agrestis. To be noted: co-substrate 6 mM L-tyrosine, 0.48 mM PLP, 1 M Tris/HCl pH 8.5, 40 °C.

Substrate in series [2]: O=C(O)C(=O)Cc1ccccc1
It is filed as biochemical, Anthoceros agrestis. As to conditions: co-substrate 6 mM L-tyrosine, 0.48 mM PLP, 1 M Tris/HCl pH 8.5, 40 °C.

Substrate in series [3]: N[C@@H](Cc1ccc(O)cc1)C(=O)O
It counts as biochemical, Anthoceros agrestis. As to conditions: co-substrate 80 mM 2-oxoglutarate, 0.48 mM PLP, 1 M Tris/HCl pH 8.5, 40 °C.

Substrate in series [4]: N[C@@H](Cc1ccccc1)C(=O)O
It counts as biochemical, Anthoceros agrestis. To be noted: co-substrate 80 mM 2-oxoglutarate, 0.48 mM PLP, 1 M Tris/HCl pH 8.5, 40 °C.

Substrate in series [5]: O=C(O)CCC(=O)C(=O)O
It counts as biochemical, Anthoceros agrestis. To be noted: co-substrate 6 mM L-tyrosine, 0.48 mM PLP, 1 M Tris/HCl pH 8.5, 40 °C.

Substrate in series [6]: O=C(O)CC(=O)C(=O)O
To be noted: co-substrate 6 mM L-tyrosine, 0.48 mM PLP, 1 M Tris/HCl pH 8.5, 40 °C.

B1: AaTAT (tyrosine aminotransferase) (Anthoceros agrestis) (protein)
chain: MATVLNQKRQAEILHGNGVEGGGGGLAVSKIMSKAVVGKPPVARKPAGKTVDKEWNVRPRIAALESRNPIRDIVETKLKPNPNLGKKPISLAQGDPTVYGHLKVPESACAALAEVATSYKYNGYAHSAGILECRSAVADFHSEHLPFELTPEDVGIVVGCSQAIEFSIACLAAEGSNMLVPRPGFPIYDTFCRYYGVEVRYYDLLPERGWEVDLEQVAELADDDTAAMILCNPSNPCGTSFSYQHLSQIAGLCEKLKLPIISDEIYEHMLFGEKKFTPMATFSLQVPVLTVGGISKRWLAPGWRLGWILICDPCCILEKSGVVEALKRIMQMTIGTSVLVQAAVPAMLQNTTPEFYKQTMKTLEDGCDCCYRRIQGIVGLDVPTKPDGAMYMMAKVDPSAFKDIPDDTVFAEKLVKEENIVVLPGSAFGIHNWLRLVFATPVYMLEEAFDRIEAFCLRHASVQN
notes: full length, 464 residues (1395 bp), N-terminal 6xHis tag kept, pET-15b, E. coli SoluBL21, Ni-NTA
Turning to B1, the Km is given as 81.14 ± 15.12 mM in series [1]; 7.92 ± 2.35 mM in series [2]; 0.53 ± 0.05 mM in series [3]; 70.47 ± 4.18 mM in series [4]; 15.13 ± 1.34 mM in series [5]; 4.05 ± 1.44 mM in series [6]. Also, the Vmax came to 13.4 µmol/min/mg in series [1]; 31.8 µmol/min/mg in series [2]; 55.3 µmol/min/mg in series [3]; 134 µmol/min/mg in series [4]; 82.6 µmol/min/mg in series [5]; 0.756 µmol/min/mg in series [6]. Further, the kcat in series [1] was 11.9 ± 1.6 s⁻¹; in series [2], 28.2 ± 6.2 s⁻¹; in series [3], 48.9 ± 7.6 s⁻¹; in series [4], 119 ± 26.9 s⁻¹; in series [5] it was 73.1 ± 5.2 s⁻¹; in series [6], 0.7 s⁻¹. The kcat/Km was determined as 150 ± 20 M⁻¹ s⁻¹ in series [1]; 3900 ± 1400 M⁻¹ s⁻¹ in series [2]; 91700 ± 9800 M⁻¹ s⁻¹ in series [3]; 1700 ± 400 M⁻¹ s⁻¹ in series [4]; 4900 ± 300 M⁻¹ s⁻¹ in series [5]; 200 M⁻¹ s⁻¹ in series [6].
